Here are results for two substances from patent publication US20230312678A1.

Like-named read-outs stand apart in the source and are kept apart here.

Assay [1] deals with ED-tagged full-length PD-1 receptor stably expressed in Jurkat cells (PathHunter PD-1 Signaling Bioassay, DiscoverX) (UniProt Q15116). Description: cell-based or functional assay.
Assay [2] shares this target. Description: cell-based or functional assay. The source holds these as a separate data set.

UniProt Q15116, sequence (Q15116 25-288): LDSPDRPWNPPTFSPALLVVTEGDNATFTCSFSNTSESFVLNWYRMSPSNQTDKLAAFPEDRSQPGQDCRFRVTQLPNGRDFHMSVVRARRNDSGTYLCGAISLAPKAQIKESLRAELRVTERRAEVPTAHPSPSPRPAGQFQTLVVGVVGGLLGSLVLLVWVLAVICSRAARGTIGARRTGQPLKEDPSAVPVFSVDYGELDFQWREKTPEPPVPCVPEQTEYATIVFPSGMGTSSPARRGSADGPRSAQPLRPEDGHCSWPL

On to “hPD-L1-Fc-GPI artificial synapses engineered from exosomes (hPDL1-Fc-GPI fusion polypeptide displayed on the exosome surface) (Fc fusion)”, for which the results for the Relative Light Units (RLU), modified PathHunter PD-1 Signaling Bioassay; fold against soluble PD-L1-Fc in assay [1] and in assay [2] were 10000 fold and 1000 fold, respectively.

Take “hPD-L2-Fc-GPI artificial synapses engineered from exosomes (hPDL2-Fc-GPI fusion polypeptide displayed on the exosome surface) (Fc fusion)”: the Relative Light Units (RLU), modified PathHunter PD-1 Signaling Bioassay; fold against soluble PD-L2-Fc was 10000 fold in assay [1] and 1000 fold in assay [2].
